According to patent US20190194249A1 (NATIONAL INSTITUTE OF ADVANCED INDUSTRIAL SCIENCE AND …, published 2019):

Target: T1, pH 2.0-treated Fc (Fc region of human monoclonal IgG, acid-treated and neutralised) (human)
T1 construct: Dialysed at pH 2.0 for 12 h, then neutralised; also called acid-treated Fc region
Assay: SPR (Biacore T100), AF.ab9 immobilised on CM5, Fc region as analyte

- binding response relative to that on the acid-treated (non-native) Fab region: ≤ 0.01 fold
B1: Polypeptide AF.ab9 (SEQ ID NO: 8) (peptide)
peptide: PNSGGGGSYDPETGTWPQEIRLILNW
notes: Chemically synthesised; 8-residue linker + 8-residue chignolin + 10-residue selected region
